For the assay, the target named is human-FcRn (neonatal Fc receptor) (human) (UniProt P55899). Briefly: SPR (ProteOn XPR36), IgG amine-coupled on reaction spots, human FcRn injected in kinetic titration, pH 6.0.

Substitutions are numbered along the chain they refer to. In names and notes the source's numbering stands.

Sequence of UniProt P55899 (P55899 24-297 limits assumed, chain 1 of 2): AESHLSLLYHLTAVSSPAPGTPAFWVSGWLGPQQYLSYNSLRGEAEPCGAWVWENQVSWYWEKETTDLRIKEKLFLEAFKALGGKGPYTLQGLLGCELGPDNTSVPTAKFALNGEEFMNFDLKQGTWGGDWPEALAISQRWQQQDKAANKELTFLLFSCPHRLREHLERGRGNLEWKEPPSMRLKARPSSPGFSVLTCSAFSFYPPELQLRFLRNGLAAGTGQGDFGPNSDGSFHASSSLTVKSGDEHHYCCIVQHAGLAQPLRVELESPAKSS
Sequence of UniProt P55899 (P61769 21-119 limits assumed, chain 2 of 2, further chain): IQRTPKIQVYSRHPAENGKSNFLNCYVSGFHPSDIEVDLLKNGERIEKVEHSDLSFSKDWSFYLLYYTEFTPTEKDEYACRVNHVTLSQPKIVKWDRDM

By Kd is commonly meant the free concentration of one partner at which half of the binding sites on the other are occupied at equilibrium, for simple one-to-one binding. Read a high Kd as lower affinity. For the molecule hIgG2ΔA (control) (antibody), the Kd came to 983 nM.

B1: hIgG2.EEE.L368E.Ab1.Ab1/hIgG2.RRR.K409R.Ab2.Ab2 (bispecific antibody, part only; not given: Variable regions and light chains, not shown: another chain or arm of the molecule)
constant 1: ASTKGPSVFPLAPCSRSTSESTAALGCLVKDYFPEPVTVSWNSGALTSGVHTFPAVLQSSGLYSLSSVVTVPSSNFGTQTYTCNVDHKPSNTKVDKTVERKCEVECPECPAPPVAGPSVFLFPPKPKDTLMISRTPEVTCVVVDVSHEDPEVQFNWYVDGVEVHNAKTKPREEQFNSTFRVVSVLTVVHQDWLNGKEYKCKVSNKGLPSSIEKTISKTKGQPREPQVYTLPPSREEMTKNQVSLTCEVKGFYPSDIAVEWESNGQPENNYKTTPPMLDSDGSFFLYSKLTVDKSRWQQGNVFSCSVMHEALHNHYTQKSLSLSPGK
constant 2: B1 constant 1 with E103R, E105R, E108R, E247L, K288R
In turn, B1 had an equilibrium dissociation constant (Kd) of 600 nM.
